Source: patent publication US20040071656A1 (published 2004)

Assays:
[1] = target: T1, Recombinant human His6-tagged Hsp70 (human, UniProt P0DMV8 2-641); experiment: titration of peptide C in the GST-CD40 pull-down of His6-Hsp70-ADP, quantified immunoblot
T1 construct: mature; also called His6-Hsp70; human Hsp70
Experimental: For binding assays with recombinant Hsp70 and its domains, 3 μM His6-Hsp70 or its His6-tagged domains were incubated with 2 mM ATP, 2 mM ADP or 2 mM ADP and 28 μM peptide C in 50 μl binding buffer (10 mM MOPS/KOH, pH 7.2, 150 mM KCl and 3 mM MgCl2) for 30 min at 37° C. In competition experiments binding was probed with either a 10-fold excess of Hsp70, the two domains, or DnaK, or with a 5-fold excess of Hip or Bag 1 for 10 min at 0° C. To this end, Hsp70, N70, C70 and DnaK were preincubated with ADP, ATP and peptide C as described above. For comparison of CD40 binding of Hsp70 and its N-terminal domain, Hsp70 was preincubated in the presence or absence (mock treatment) of a 30-fold molar excess of peptide C. 3 μM of GST or GST-CD40 was added to the samples and incubated for 20 min at 16° C. For titration of peptide C, 5- to 50-fold excess of peptide C (15-150 μM) was added to the preincubation of Hsp70. Thereafter the samples were combined with 20 μl of 1% BSA-treated Glutathione Sepharose 4 Fast Flow and incubated in the presence of 2 mM DTT for another 20 min at 16° C. […] 10 μl of the eluates were subjected to SDS-PAGE and analyzed by immunoblotting using a Penta-His-antibody (Quiagen). Blot signals were quantified by Quantity One (Biorad).

[2] = target: T2, Biotinylated recombinant Hsp70 (human, UniProt P0DMV8 2-641); experiment: fluorescence microscopy on LPS-stimulated ANA1 cells
T2 construct: mature; also called biotinylated Hsp70; biotin-labeled Hsp70; not shown: His tag
Experimental: ANA-1 cells were cultured in VLE-RPMI 1640 (Biochrom), supplemented with 10% FCS, 2 mM L-glutamine and antibiotics. For fluorescence microscopy, ANA1 cells were either stimulated with LPS (20 μg/ml, Sigma, Germany), or kept in an LPS-free medium (mock treatment) for 7 h. After stimulation, cells were harvested and incubated with 100 nM biotinylated Hsp70, biotinylated GST, or Hsp70/peptide C-biotin complex for 30 min at 0° C. in VLE-RPMI 1640. After incubation cells were processed for staining with streptavidin-TRITC (Sigma, Germany), fixed with paraformaldehyde and analyzed by fluorescence microscopy (Axiovert 35, Zeiss) as described (Sondermann et al., 2000). […] Twenty-four h post-transfection cells were incubated with 250 nM biotinylated Hsp70, biotinylated GST or Hsp70/peptide C-biotin complex for 30 min at 0° C. in DMEM, fixed, stained with streptavidin-TRITC (Sigma, Germany), and analyzed by fluorescence microscopy as described (Sondermann et al., 2000, idem). […] Stably transfected cell lines were analyzed by immunoblotting for CD40 expression using an anti-CD40 antibody (CSA180, Stressgen). […]

T1 sequence (P0DMV8 2-641): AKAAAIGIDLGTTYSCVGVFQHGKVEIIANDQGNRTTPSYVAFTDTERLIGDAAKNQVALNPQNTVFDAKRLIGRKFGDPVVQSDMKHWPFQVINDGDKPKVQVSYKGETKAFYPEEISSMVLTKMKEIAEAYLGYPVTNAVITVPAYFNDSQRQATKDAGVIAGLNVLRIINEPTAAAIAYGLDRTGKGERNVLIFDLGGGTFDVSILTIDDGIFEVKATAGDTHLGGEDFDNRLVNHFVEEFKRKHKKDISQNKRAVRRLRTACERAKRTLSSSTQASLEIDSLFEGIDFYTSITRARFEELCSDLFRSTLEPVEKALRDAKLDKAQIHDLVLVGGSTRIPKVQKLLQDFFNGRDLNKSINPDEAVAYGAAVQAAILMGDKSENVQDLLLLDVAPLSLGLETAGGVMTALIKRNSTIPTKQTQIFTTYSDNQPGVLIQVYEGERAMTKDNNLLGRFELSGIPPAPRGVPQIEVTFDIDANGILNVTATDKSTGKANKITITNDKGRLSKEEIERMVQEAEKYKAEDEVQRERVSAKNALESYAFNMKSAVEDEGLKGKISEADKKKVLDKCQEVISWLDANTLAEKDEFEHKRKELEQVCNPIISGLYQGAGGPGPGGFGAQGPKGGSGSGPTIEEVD
T2 sequence (P0DMV8 2-641): as above

Binder | ka (saturable effect of peptide C on binding of Hsp70-ADP to CD40) [1] [µM] | binding result [2]
GCEVFGLGWRSYKH (Synthetic Hsp70 substrate peptide; also called peptide substrate; substrate peptide) [Peptide C (GCEVFGLGWRSYKH)] | ~30 | 
Endogenous CD40 of LPS-stimulated murine ANA1 macrophage cells (receptor, UniProt P27512 20-289, looked up, whole, on cells) LGQCVTCSDKQYLHDGQCCDLCQPGSRLTSHCTALEKTQCHPCDSGEFSAQWNREIRCHQHRHCEPNQGLRVKKEGTAESDTVCTCKEGQHCTSKDCEACAQHTPCIPGFGVMEMATETTDTVCHPCPVGFFSNQSSLFEKCYPWTSCEDKNLEVLQKGTSQTNVICGLKSRMRALLVIPVVMGILITIFGVFLYIKKVVKKPKDNEILPPAARRQDPQEMEDYPGHNTAAPVQETLHGCQPVTQEDGKESRISVQERQVTDSIALRPLV |  | binds
